From patent publication US6441131B1, “Peptides, method for assaying human pepsinogen II or human pepsin II, and assaying kit” (Ono Pharmaceutical Co., Ltd., priority 1997, dated 2002)
Non-standard residues stand in square brackets, D forms with d. Primed or numbered codes have the meaning given here. No end group written: not given here. *: point of attachment. DCHA″ = 3,5-dichloro-4-hydroxyaniline residue, Oc1c(Cl)cc(N*)cc1Cl; Phe(4-Cl) = N[C@@H](Cc1ccc(Cl)cc1)C(=O)O; Phe(4-I) = N[C@@H](Cc1ccc(I)cc1)C(=O)O; 2Nal = N[C@@H](Cc1ccc2ccccc2c1)C(=O)O; pNA = O=[N+]([O-])c1ccc(N*)cc1; NH(3-MeOPh) = COc1cccc(N*)c1; Nva = CCC[C@H](N)C(=O)O; Sar = CNCC(=O)O

Assays:
human pepsin II = molecular target: T1, human pepsin II (Homo sapiens, UniProt P20142); assay: Digesting of the peptide substrate by human pepsin II (assay by HPLC); format: biochemical; details: for ration of digesting rate (pepsin II/ pepsin I): calculated from the HPLC digesting rates, pepsin II over pepsin I; for pepsin II digesting rate: peptide 0.5 mM, tartaric acid or glycine buffer pH2.0, 37° C., released amino acid derivative (II-A) by HPLC
T1 sequence (P20142 60-388): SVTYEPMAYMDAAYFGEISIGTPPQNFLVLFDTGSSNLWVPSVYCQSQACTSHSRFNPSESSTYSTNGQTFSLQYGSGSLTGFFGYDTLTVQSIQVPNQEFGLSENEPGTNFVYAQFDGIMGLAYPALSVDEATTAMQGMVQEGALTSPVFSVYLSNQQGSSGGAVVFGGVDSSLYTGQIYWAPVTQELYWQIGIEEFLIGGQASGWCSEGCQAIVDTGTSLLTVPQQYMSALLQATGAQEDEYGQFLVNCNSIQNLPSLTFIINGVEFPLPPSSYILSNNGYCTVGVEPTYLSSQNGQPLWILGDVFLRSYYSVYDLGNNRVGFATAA
Protocol: (§1) Tartaric acid buffer or glycine buffer (pH2.0) containing each peptide (0.5 mM) prepared in Examples 1 and 2(3) etc. (Examples in Table 3 described hereinafter).
(§2) An aqueous solution of human pepsin I or human pepsin II (0.01 mg/ml)
(§3) Enzyme solution I (0.1 ml) was added to Reagent (1.0 ml). After incubation of the mixture at 37° C. for 10, 30, 60 minutes, the mixture solution (0.3 ml) was collected. To the collected solution, 2N-NaOH (0.025 ml) was added to terminate the reaction. After addition of 2N-HCl (0.025 ml) to the mixture, protein was removed by the ultrafiltration. The assaying the amino acid derivatives of the formula (II-A) [drawing 19]
(§4) which was released after digesting by human pepsin in the obtained solution was carried out by HPLC using C18 column. The ratio of digesting rate of pepsin II/pepsin I was calculated according to the result from assay by HPLC. Such assay is carried out to confirm that a substrate was digested by pepsin I or pepsin II correctly and that the amino acid derivatives of the formula (II-A) were released.

human pepsin I = human pepsin I (Homo sapiens, UniProt P0DJD7); assay: Digesting of the peptide substrate by human pepsin I (assay by HPLC); format: biochemical; details: peptide 0.5 mM, tartaric acid or glycine buffer pH2.0, 37° C., released amino acid derivative (II-A) by HPLC
Protocol: as §1, §2, §3, §4

Sequence of human pepsin I (P0DJD7 63-388): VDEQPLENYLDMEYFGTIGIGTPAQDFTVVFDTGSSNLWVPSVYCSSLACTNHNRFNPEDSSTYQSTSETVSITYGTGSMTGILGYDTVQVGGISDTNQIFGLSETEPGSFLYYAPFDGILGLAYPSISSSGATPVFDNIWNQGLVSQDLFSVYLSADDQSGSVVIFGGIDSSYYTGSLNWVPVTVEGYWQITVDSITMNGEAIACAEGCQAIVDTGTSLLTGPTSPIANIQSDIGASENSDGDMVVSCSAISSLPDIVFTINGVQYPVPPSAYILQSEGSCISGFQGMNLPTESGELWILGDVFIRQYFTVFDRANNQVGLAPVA

ration of digesting rate (pepsin II/ pepsin I) (human pepsin II)	pepsin II digesting rate (human pepsin II)	pepsin I digesting rate (human pepsin I)	Substance
2065.1	4.23 μM/min · 1 μg Enz	0.0020 μM/min · 1 μg Enz	2(3): Q=Pro Gln Gln Ala; 4-I-Phenyl; R4=H; (EE)m single bond; Z=p-NA (PQQA[Phe(4-I)]G-pNA; also: TFA salt)
104.4	3.50 μM/min · 1 μg Enz	0.0335 μM/min · 1 μg Enz	2(7): Q=Pro Gln Gln Ala; 4-Cl-Phenyl; R4=Me; (EE)m single bond; Z=p-NA (PQQA[Phe(4-Cl)]A-pNA; also: TFA salt)
174.9	4.10 μM/min · 1 μg Enz	0.0235 μM/min · 1 μg Enz	2(11): Q=Pro Gln Gln Ala; 2-Naphthyl; R4=n-Pr; (EE)m single bond; Z=p-NA (PQQA[2Nal][Nva]-pNA; also: TFA salt)
410.2	3.85 μM/min · 1 μg Enz	0.0094 μM/min · 1 μg Enz	2(14): Q=Ac Lys Pro Gln Gln Ala; 4-I-Phenyl; R4=Me; (EE)m single bond; Z=p-NA (Ac-KPQQA[Phe(4-I)]A-pNA; also: TFA salt)
1094.8	8.95 μM/min · 1 μg Enz	0.0082 μM/min · 1 μg Enz	2(16): Q=Asn Pro Gln Gln Ala; 4-I-Phenyl; R4=Me; (EE)m single bond; Z=p-NA (NPQQA[Phe(4-I)]A-pNA; also: TFA salt)
757.0	9.20 μM/min · 1 μg Enz	0.0122 μM/min · 1 μg Enz	2(18): Q=Ala Pro Gln Gln Ala; 4-I-Phenyl; R4=Me; (EE)m single bond; Z=p-NA (APQQA[Phe(4-I)]A-pNA; also: TFA salt)
222.6	12.87 μM/min · 1 μg Enz	0.0578 μM/min · 1 μg Enz	2(22): Q=Pro Gln Gln Asn; 2-Naphthyl; R4=Me; (EE)m single bond; Z=p-NA (PQQN[2Nal]A-pNA; not fully specified)
308.8	5.90 μM/min · 1 μg Enz	0.0191 μM/min · 1 μg Enz	2(23): Q=Pro Gln Gln Gln; 2-Naphthyl; R4=Me; (EE)m single bond; Z=p-NA (PQQQ[2Nal]A-pNA; also: TFA salt)
2081.6	12.06 μM/min · 1 μg Enz	0.0058 μM/min · 1 μg Enz	2(24): Q=Pro Gln Gln Gly; 2-Naphthyl; R4=Me; (EE)m single bond; Z=p-NA (PQQG[2Nal]A-pNA; also: TFA salt)
889.7	5.56 μM/min · 1 μg Enz	0.0063 μM/min · 1 μg Enz	2(25): Q=Pro Gln Gln Met; 2-Naphthyl; R4=Me; (EE)m single bond; Z=p-NA (PQQM[2Nal]A-pNA; also: TFA salt)
402.3	25.41 μM/min · 1 μg Enz	0.0632 μM/min · 1 μg Enz	2(33): Q=Pro Gln Glu Glu; 2-Naphthyl; R4=Me; (EE)m single bond; Z=p-NA (PQEE[2Nal]A-pNA; also: TFMSA salt)
711.9	15.40 μM/min · 1 μg Enz	0.0216 μM/min · 1 μg Enz	2(34): Q=Pro Gln Asp Glu; 2-Naphthyl; R4=Me; (EE)m single bond; Z=p-NA (PQDE[2Nal]A-pNA; also: TFMSA salt)
193.5	21.22 μM/min · 1 μg Enz	0.1096 μM/min · 1 μg Enz	2(36): Q=Pro Asn Ser Glu; 2-Naphthyl; R4=Me; (EE)m single bond; Z=p-NA (PNSE[2Nal]A-pNA; also: TFMSA salt)
201.1	45.79 μM/min · 1 μg Enz	0.2277 μM/min · 1 μg Enz	2(39): Q=Pro Met Ser Glu; 2-Naphthyl; R4=Me; (EE)m single bond; Z=p-NA (PMSE[2Nal]A-pNA; also: TFMSA salt)
161.4	40.55 μM/min · 1 μg Enz	0.2512 μM/min · 1 μg Enz	2(45): Q=Pro Thr Ser Glu; 2-Naphthyl; R4=Me; (EE)m single bond; Z=p-NA (PTSE[2Nal]A-pNA; also: TFMSA salt)
333.8	54.43 μM/min · 1 μg Enz	0.1631 μM/min · 1 μg Enz	2(51): Q=Gly Leu Ser Glu; 2-Naphthyl; R4=Me; (EE)m single bond; Z=p-NA (GLSE[2Nal]A-pNA; also: TFMSA salt)
621.0	61.96 μM/min · 1 μg Enz	0.0998 μM/min · 1 μg Enz	2(53): Q=Gln Leu Ser Glu; 2-Naphthyl; R4=Me; (EE)m single bond; Z=p-NA (QLSE[2Nal]A-pNA; also: TFMSA salt)
176.7	48.39 μM/min · 1 μg Enz	0.2739 μM/min · 1 μg Enz	2(54): Q=Lys Leu Ser Glu; 2-Naphthyl; R4=Me; (EE)m single bond; Z=p-NA (KLSE[2Nal]A-pNA; also: TFMSA salt)
562.6	10.94 μM/min · 1 μg Enz	0.0194 μM/min · 1 μg Enz	2(56): Q=Ser Leu Ser Glu; 2-Naphthyl; R4=Me; (EE)m single bond; Z=p-NA (SLSE[2Nal]A-pNA; also: TFMSA salt)
660.9	18.78 μM/min · 1 μg Enz	0.0284 μM/min · 1 μg Enz	2(57): Q=Thr Leu Ser Glu; 2-Naphthyl; R4=Me; (EE)m single bond; Z=p-NA (TLSE[2Nal]A-pNA; also: TFMSA salt)
219.0	36.81 μM/min · 1 μg Enz	0.1681 μM/min · 1 μg Enz	2(61): Q=Ac Lys Asn Leu Ser Glu; 2-Naphthyl; R4=Me; (EE)m single bond; Z=p-NA (Ac-KNLSE[2Nal]A-pNA; also: TFMSA salt)
169.2	29.84 μM/min · 1 μg Enz	0.1763 μM/min · 1 μg Enz	2(63): Q=Pro Asn Asn Leu Ser Glu; 2-Naphthyl; R4=Me; (EE)m single bond; Z=p-NA (PNNLSE[2Nal]A-pNA; also: TFMSA salt)
20.74	54.41 μM/min · 1 μg Enz	2.6240 μM/min · 1 μg Enz	2(78): Q=Leu Ser Glu; 2-Naphthyl; R4=Me; (EE)m=Leu; Z=p-NA (LSE[2Nal]AL-pNA; also: TFMSA salt)
105.48	15.77 μM/min · 1 μg Enz	0.1500 μM/min · 1 μg Enz	2(80): Q=Leu Ser Glu; 2-Naphthyl; R4=Me; (EE)m=Gly; Z=p-NA (LSE[2Nal]AG-pNA; also: TFMSA salt)
29.87	70.66 μM/min · 1 μg Enz	2.3660 μM/min · 1 μg Enz	2(83): Q=Sar Leu Ser Glu; 2-Naphthyl; R4=Me; (EE)m=Ala; Z=m-ASD ([Sar]LSE[2Nal]AA-{NH(3-MeOPh)}; also: TFMSA salt)
158.4	49.56 μM/min · 1 μg Enz	0.3128 μM/min · 1 μg Enz	Nα-Me-GlyLeuSerGluAla(2-Naph)Ala-pNA.TFMSA ([Sar]LSE[2Nal]A-pNA; also: TFMSA salt) [Example 2(70)]
119.5	33.07 μM/min · 1 μg Enz	0.2767 μM/min · 1 μg Enz	Nα-Me-GlySerGlyAla(2-Naph)AlaAla-DCHA.TFMSA ([Sar]SG[2Nal]AA-{DCHA″}; also: TFMSA salt) [Example 2(84)]

Substance	ration of digesting rate (pepsin II/ pepsin I) (human pepsin II)	pepsin II digesting rate (human pepsin II)	pepsin I digesting rate (human pepsin I)
ProLeuSerGluAla(2-Naph)Ala-pNA (PLSE[2Nal]A-pNA) [Example 1]	198.2	55.40 μM/min · 1 μg Enz	0.2795 μM/min · 1 μg Enz
